Data: the DeepSol protein solubility set

assay: soluble on expression in E. coli; label from the status in PepcDB or PDB records

Sequence	soluble on expression in E. coli
MGSDKIHHHHHHMPQGKANPFNINTSVKNGTVAKVGSISPTSFLNSVDPNATEVDVGGEPFNQKEFLELALNDDFLKGLLLDEEGNIKPEVAGEATIQGLEQWHQNDAGLEVDDTDTLGLMFNYYLNDNVSLQFIGGIPPKVDIKGQGEILAPLSGVALSPNELVKILFPNGITLGQAVPITNLGNKPKAASVRAWTPAIEAQYQFGKSGVNKFRPYLGVGLMYAHFNDIKLNDEIRSDLISAGHMIQNVLDGKAGAALDRKESSGNMVVKVDADDAIAPIFTAGFTYDFNDSWYTVASVSYAKLNNRTQIDVINQNTGARLIHGSTKVDIDPIITYLGVGYRF	not soluble
MGSDKIHHHHHHMPTKRGQIRHDPSSKKATTMDLNRRPVASLWIGESLQYLNQLCLKSHLRHGHPVTLYCTDKVTNAPEGVVVKPATDIMDIPMNIVEQTSASFLSNVFRYKMIQQTGAIWIDCDAFCHAPFPDEWEHIYAGHGMRGALNCGVVGIPQQGELMDQLLDYYDNLPDYPPWWNPRQRKRMDRQDSNLPLAVRIYKTERTAFGPQAFTHFARETGDIDRAMTSDVLYPVPFQLNDIFYDPHGRVEGWFSENTRSVHLYTNGTKPWWRKNPPLENSYAWRMCQEVGITPEDALE	not soluble
MGSDKIHHHHHHMPYDEILPIETLVRPKVSDFREHYLEKERPVKIARALDAWPAMQKWSLDYFENRFGDETIGVESFQPDERGPGNNSPQGYVKHLRFQELKLKELIRILRTKPDHMYYMASHPFRKSFPNLRADLAPHPYVQGHIEHIPGAHMDSYLWIGPAGTHTPIHTDPMPNFLTQIVGRKMVYLFPPDQASKNLYIGQFERETFSPVDLEKPDLERYPNYRHCTPYRAIIEPGETLHIPRNWGHCVISMDISISISTFFITYPQLFRLVPEFFTQYVKRAFEGWRWKGMENERAGLNPPPR	not soluble
MGSDKIHHHHHHMQATDIATQQALAAALGVNRSAVTQAKNRDAIPQKWILQLARAYHLAPDWLEFGKGRQHQPPTSLHDPETVLVPRVKAVLSAGGGSLDVSGGVVENLPFRYDWLARRGHPAHMVLMNVTGDSMEPGIRHGDTLLIDQSHVTAQTGGVYAFGYEDSILVKRFGRDADAILLLSDNTAYAPIRIRGDEADLLHVIGKIVWLCRAVQ	not soluble
MGSDKIHHHHHHMQCMIDAMRSIVSLISHATVALAGSLAVAGCSLSPQPDHDTAATTPERLEARIHKVHRFDPQAFTQGLELDGDRLLVSTGFYGESGMFSMEVGNAPQQRTPLDPELFGEGITKTGDHIWQLTWRDGIAFKRDATTFQQLGTVSYEGEGWGLCHFDDRVIMSNGSDELIIRDPESFDERSRIRVTNQGNGVSNLNELECVPNDPATGKDTIYANVFLSTDIMRIDATTGAVTGIIDASSIPNNAVADTNNVLNGIAWIPSSDRFYITGKRWPDLYEVTFVSKMSNHGQS	not soluble
MGSDKIHHHHHHMQDKVIPSLSAAIAKEVERRTQGVDWCETEIAGLDFYRQSAPTSCSVCVVEPSIALVVQGAKAMTLGEQTFRYDPSRFLITSLDLPAKMQVLEASEEAPYLGVVIKLDLAVMSDLMLQTPLTMQKETASDQGMILGATTPKLLGAISRLVNLLDEPESIAVLAPLIKREIYWRVLMSEQGARLRQIVSAGSHGLRIARTIEWLKVHYDQHLSVDSLADMARMSKSTFHHHFRRLTSMSPLQYQKRLRLLEARRLMLGEDIDASAAAYRVGYESPSQFSREYSRLFGASPKKDVATQWQ	not soluble
MGSDKIHHHHHHMQDNLIEIRDLRVAFNGHEVVHGISLDIRRGECLALVGESGSGKSVTAHSILRLLPPKNVSTQGSIRYDGLDLVTASDKQLRSLRGNRVAMIFQEPMSSLNPLHTVEKQIGEILVTHKGLKGKAALSRTLELLELVGIREPLLRLKAYPHQLSGGQRQRVMIAMALANEPDLLIADEPTTALDVTVQVKILELLKSLQQRLNMSLLLISHDLNLVRRIAQRVCVMREGEIVEQADCQALFDNPQHPYSRLLINAEPDGEPVPSTHSNTLLSVQDLKVWFPLGKAWFQREQQYVKAVDGVSFELLKGKTLGIVGESGSGKSTLGQAILRLVDSEGSIRFGTKELSLHSQHLMRPLRRQLQVVFQDPFGSLSPRMTVEQIIAEGLVTHKIGTPKEREQTVIRVLQEVGLDPATRHRYPHEFSGGQRQRISIARALVLEPDLILLDEPTSALDRTVQKQIVALLRDLQIRHGLTYLFISHDLAVVHALAHDLIVIKDGKVVEQGPSREIFAAPQQAYTQELLRSSGLVFA	not soluble
MGSDKIHHHHHHMQFLKVYSVFGEEVVGCHVRIENLSVACSVVSAGGTHPSEKCVCNHEFSSVSLHQKKHPHLEKLLETSRPIKLDSSSKVLILSDLHMGNGGRRDEFRRNSELVRSMLQDYYLPGGYSLVLNGDIEELFKFSVEDITKVWGHIYDLFLQFEKNGFFWKTYGNHDSDLFEERNYPLSKHLLESIRFQYGDEVMLLFHGHQASILLWETYPLVSRAVVLFLRYVAKPIGIRNFSTAYNSRRRFAIEKSIYEFSNQAKIVSIIGHTHRPLFESLSKVDHLKYKIEELCRQYPSALPEERLAIQERIGELKAMLDACFTEGKKIGLRSGRYNNIAIPSVFNSGCAIGKRGVTALEIDGDRIRLVYWFKEKQGRRFVSDRNSEPEQLGDTGFYRIVLNEDHLDYVFSRIRLLA	not soluble
MGSDKIHHHHHHMQGIQQSLPLAVVRGEPVRELPADLFIPPEALEVFLEAFEGPLDLLLYLIRKQKLDVIELPLTLIAAQYLEYIRLLTDARIELAADYLVMAATLAEIKSRLLLPKMAVEDDEEEDPRVRLIKQLKAYESIREAAFKLDELPRLERDVHQARAQAAPGLKPEVIPPDVSLKELALAFAEVLKRASAFEHHQVKKEVLSTRERMSEILAKLDHEHFTPFTALFSPEEGRGGVVVSFLALMELVKETLVELYQAEPLSGIYVKAT	not soluble
MGSDKIHHHHHHMQKLQTVNAETLLYEPLEKPSFVVDSLIPTGLSLFCGSQKIGKSWLMLKLCLCVSQGIPLWDMPTMEGDVLYLCLEDTFCRIQDRLFRLTDEASGRLHFAVASCKLSDGLIVQLEDYLKDYPDSRLIVIDTLQKVRTASKDNAYASDYGDISLIKDFADRHSLAVIVVHHIRKQNDSDVFNKVSGTTGLTGSADATFVLEKEKRASDTAKLYVTGRDTPYQEYTLRFRDCRWELVERKTQEQLAKETIPDVLFRLVDFMRDKEEWIGTATELLAAMGETETIPTVITKWLNEYRTTFLSENRICYQYSRRKDGRRIALARRAGDSGDGGDSDIRIPPCYCH	not soluble
MGSDKIHHHHHHMQPTIDQKKNPAIGNQRVTKRRKTIAQGLIQEGIELEIIQSWLFAIAQMWEVGHIPPILRGISHKSQVEALFRISQIGETIQKVHEKLAGEYYQDWVKSLNRAGLHTPSEIISAITEIQQVVKPEAIDTTKQLLNKLELEIIGMKDGDFFPTPKPLCQRLVQLADIKPNWQILEPSAGSGNIAEYITNTYPNVQLEVVEINYDLRQILELKGFNLVGKNFLEFNPSHLYNACIMNPPFCELVQHIYQAWKLLITGGVLVSVIPESVFFNRKYKTFKNWLLANNSYVEMVDKDAFLSSNNPTNVATRIIKLIKP	not soluble
MGSDKIHHHHHHMQQFPRLARVGLGFRRELIPALKSGVPATIDFFEIAPENWIDLGGGAARDLLFFTERYPFVCHGLSLSIGGPAPLDEILLQKIRQFLDQHRVLLYTEHLSYCSDDGHLYDLLPIPFTEEAVKYVAERVRRTQDILERRIALENASFYVASPISDMSELDFIRAVLLEADCDLHLDVNNVYVNSINHDYDPVDFIRALPSDRIVYMHMAGHHKEAENLIIDTHGADVIDPVWSLLDQTYGMHGVAPTLLERDFNIPPLEQLMREVLHIALIQAQHADSGDASAT	not soluble
MGSDKIHHHHHHMQRARAEQRGRDLVIHLDRPLNQDHLETVSGGQGEFYVDFEVADPRKASVQQRRLFFALLHDIETYFVVPSEFLKSMFYTQYEFYTAGKSISLSDATESSVSDANTLLDLVIDFMFEWRVPFKKGYELLPKEEQYFIYQCCRHRVCIVCGEHADIHHVDVVGRTNRNKIDHSQRHVMALCRAHHSEIESIGSAKFAAKYHVPVTGIKLKIEDLQKLGIRGNYGGD	not soluble
MGSDKIHHHHHHMQRLMNNIMKVENFLAQKSINYDKIDRFLMFRMYEKYKKYFKNIPIIQLIGTNGKGSTGRYLTQLLENLNYKIGHYTSPHIFSFNERFYLDGKIANDEELEQAHIRLEEIFKQDLQKLSYFEYATFLAMILFQKCDFIVLEAGVGGEYDATSIFERRMSIFTRIGFDHIQILGNSLEDIARTKLKVMAPIALISDEQEQNVLNLAKKIAFLKKANLQVSSLNPFLKEKFEIYCKKFVLPYFLKHNLKLALKACEILTSQEKTLEALKKLQELNLQGRCQEISPNFFVDVGHNPMAAKAMLDKFQGEKINLIYNAYLDKDIFQILNTLKPIIDTIQIYKYKSAERKLADDEIYSIASKLGMQCKEFVKLEENKKNLVFGSFMLVENFLKEWCGKK	not soluble
MGSDKIHHHHHHMQSFDVVIAGGGMVGLALACGLQGSGLRIAVLEKQAAEPQTLGKGHALRVSAINAASECLLRHIGVWENLVAQRVSPYNDMQVWDKDSFGKISFSGEEFGFSHLGHIIENPVIQQVLWQRASQLSDITLLSPTSLKQVAWGENEAFITLQDDSMLTARLVVGADGAHSWLRQHADIPLTFWDYGHHALVANIRTEHPHQSVARQAFHGDGILAFLPLDDPHLCSIVWSLSPEQALVMQSLPVEEFNRQVAMAFDMRLGLCELESERQTFPLMGRYARSFAAHRLVLVGDAAHTIHPLAGQGVNLGFMDVAELIAELKRLQTQGKDIGQHLYLRRYERRRKHSAAVMLASMQGFRELFDGDNPAKKLLRDVGLVLADKLPGIKPTLVRQAMGLHDLPDWLSAGK	not soluble
MGSDKIHHHHHHMQSKSDIQRLLTIMERLRDPQTGCPWDKAQSYQTIVPFTLEEAFEVADTIERGALDELPGELGDLLFQVIFYCQLGKEQGRFDFDQVVEKICTKLTERHPHVFGEMTQASSESVRETWESIKAKERKGRSLHSVLDDIPRSLPALTRAAKVQRRVATVGFDWNDLGPVVAKIHEEIDEVMVEVAAQDRDKMEDELGDLLFAVVNLARHLKLDPEQALRRATNKFEHRFRGVEALAAQSGKAMQEHSLTELDAYWEQVKRNDPLKG	not soluble
MGSDKIHHHHHHMQTGKAISIPSILKVGNGTLNKIGEYLKSEELTSVVIFMGNGLIDMFGDTIMKSLTDAGITVLEYSELDTVEIDDIITLAFDIPNKVKAVVSVGGGKVIDAGKYAAFLRNMPFISVPTSSSSDGFSSASASLLVHGKRTSVPAKLAHGIIVDTQVIRTAPEKFIYSGIGDMVSKITALYDWIFEEAHGAGVVNDFAVMVAKKAVNSFVRTPYESIKDELFLKELVDSLAMSGIANEIAGSSAPTSGSEHLISHALDKILEHPQLHGIQVGIATYIMSVVQNHRYVRVCTVLKRTGFFDYAATLGMRKQDFLDAIDMAPSMKPFRHTYLHEKEYRDAAKKLVLEDDILNKILV	not soluble
MGSDKIHHHHHHMQTTTALRLYGKRDLRLETFTLPAMQDDEILARVVTDSLCLSSWKEANQGADHKKVPDDVATRPIIIGHEFCGEILAVGKKWQHKFQPGQRYVIQANLQLPDRPDCPGYSFPWIGGEATHVVIPNEVMAQDCLLTWEGDTWFEGSLVEPLSCVIGAFNANYHLQEGSYNHVMGIRPQGHTLILGGTGPMGLLAIDYALHGPINPSLLVVTDTNKPKLSYARRHYPSEPQTLIHYLDGHEASRDTLLALSGGHGFDDIFVFVPNEQLITLASSLLAPDGCLNFFAGPQDKQFSAPINFYDVHYAFTHYVGTSGGNTDDMRAAVALMQAKKVQTAKVVTHILGLNAAGETTLDLPAVGGGKKLVYTGKAFPLTPLGEIADPELAAIVARHHGIWSQDAEAYLLAHAEDITHD	not soluble
